Results published in patent US20160108105A1.

Target: FcγRI (UniProt P12314)
Assay: ELISA, coated protein, soluble FcγRI 2 µg/ml

Chain of UniProt P12314 (P12314 16-288 limits assumed): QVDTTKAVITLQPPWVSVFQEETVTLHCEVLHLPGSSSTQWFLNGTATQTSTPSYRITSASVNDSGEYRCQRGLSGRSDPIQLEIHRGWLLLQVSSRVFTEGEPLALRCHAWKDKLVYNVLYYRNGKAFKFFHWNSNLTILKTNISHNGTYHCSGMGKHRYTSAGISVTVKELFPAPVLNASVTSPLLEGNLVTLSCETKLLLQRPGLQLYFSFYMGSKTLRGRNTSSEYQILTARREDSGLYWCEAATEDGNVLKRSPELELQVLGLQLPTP

## hGH-chimeric IgG4 variant: 4 amino acids at the N-terminus of IgG4 Fc CH2 domain replaced with 2 amino acids of IgD CH2 domain (Fc fusion)
  FcγRI binding ability relative to hGH-IgG4Fc-wt (fold of hGH-IgG4Fc-wt): 0.5
